Measurements from article PMC9943652.

Tests used:
Test in all cases: EMSA
[1] = biological target: coreTFIIH (7-subunit: XPB, XPD, p62, p52, p44, p34, p8) (human, UniProt P19447;P18074;P32780;Q92759;Q13888;Q13889;Q6ZYL4 …)
XPG = biological target: T1, XPG (human, UniProt P28715 2-1186)
T1 sequence: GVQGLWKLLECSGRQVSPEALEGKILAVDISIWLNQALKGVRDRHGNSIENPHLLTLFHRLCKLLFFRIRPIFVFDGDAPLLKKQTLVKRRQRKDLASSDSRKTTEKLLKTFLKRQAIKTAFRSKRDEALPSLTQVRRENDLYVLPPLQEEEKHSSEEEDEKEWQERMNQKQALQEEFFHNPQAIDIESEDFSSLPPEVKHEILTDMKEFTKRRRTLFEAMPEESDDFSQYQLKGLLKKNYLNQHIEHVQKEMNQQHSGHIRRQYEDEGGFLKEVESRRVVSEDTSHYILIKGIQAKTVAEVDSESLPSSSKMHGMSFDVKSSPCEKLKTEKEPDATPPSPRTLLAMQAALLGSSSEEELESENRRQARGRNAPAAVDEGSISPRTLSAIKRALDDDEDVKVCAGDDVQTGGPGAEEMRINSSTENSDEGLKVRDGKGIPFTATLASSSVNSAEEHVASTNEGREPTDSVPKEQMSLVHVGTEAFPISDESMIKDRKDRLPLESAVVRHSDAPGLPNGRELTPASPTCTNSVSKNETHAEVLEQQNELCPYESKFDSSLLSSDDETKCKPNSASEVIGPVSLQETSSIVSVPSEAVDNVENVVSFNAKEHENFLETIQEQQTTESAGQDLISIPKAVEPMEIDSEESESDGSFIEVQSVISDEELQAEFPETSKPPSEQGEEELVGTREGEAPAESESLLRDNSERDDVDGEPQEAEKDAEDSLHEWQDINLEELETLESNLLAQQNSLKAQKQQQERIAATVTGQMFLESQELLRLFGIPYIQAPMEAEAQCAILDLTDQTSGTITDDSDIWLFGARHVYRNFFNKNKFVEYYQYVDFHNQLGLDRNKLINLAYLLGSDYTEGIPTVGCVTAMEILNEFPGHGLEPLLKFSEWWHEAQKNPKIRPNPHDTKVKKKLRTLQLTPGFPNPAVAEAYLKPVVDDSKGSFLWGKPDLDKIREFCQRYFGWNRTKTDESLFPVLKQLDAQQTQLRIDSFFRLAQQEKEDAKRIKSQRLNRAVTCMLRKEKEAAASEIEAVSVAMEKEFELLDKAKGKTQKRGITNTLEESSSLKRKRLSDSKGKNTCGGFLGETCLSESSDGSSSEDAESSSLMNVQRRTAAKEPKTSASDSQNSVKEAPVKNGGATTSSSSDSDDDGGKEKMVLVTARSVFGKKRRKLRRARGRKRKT

[2] = biological target: coreTFIIH (7-subunit: XPB, XPD, p62, p52, p44, p34, p8);XPG (human;human, UniProt P19447;P18074;P32780;Q92759;Q13888;Q13889;Q6ZYL4;P28715 …, |)

B1: 3'Cy5 40ss/24ds (mixed)
DNA 1: TTTTTTTTTTTTTTTTTTTTTTTTTTTTTTTTTTTTTTTTGCTGTTGCCCGTCTCACTGGTGAA
DNA 2: TTCACCAGTGAGACGGGCAACAGC
**Q.** B1 was tested. Which Kd [1] did it give?
**A.** ~82 nM

**Q.** And the Kd (XPG)?
**A.** ~134 nM

**Q.** And the Kd [2]?
**A.** ~19 nM
